Source: patent US20100151492A1

Experiments:
human PD-1 (human) = human PD-1 (human) (UniProt Q15116); assay: cell-based or functional assay
human PD-L1 (human) = human PD-L1 (human) (UniProt Q9NZQ7); assay: cell-based or functional assay
Chain of UniProt Q9NZQ7 (Q9NZQ7 19-290 limits assumed): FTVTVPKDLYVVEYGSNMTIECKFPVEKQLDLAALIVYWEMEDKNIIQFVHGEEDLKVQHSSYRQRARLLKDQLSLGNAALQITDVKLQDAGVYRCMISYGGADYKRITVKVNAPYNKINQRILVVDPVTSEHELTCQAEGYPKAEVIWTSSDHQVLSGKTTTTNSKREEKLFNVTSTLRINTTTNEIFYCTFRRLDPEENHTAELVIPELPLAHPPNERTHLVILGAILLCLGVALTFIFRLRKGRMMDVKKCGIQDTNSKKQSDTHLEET

Chain of UniProt Q15116 (Q15116 other isoform, or with tags, fused parts or gaps limits assumed): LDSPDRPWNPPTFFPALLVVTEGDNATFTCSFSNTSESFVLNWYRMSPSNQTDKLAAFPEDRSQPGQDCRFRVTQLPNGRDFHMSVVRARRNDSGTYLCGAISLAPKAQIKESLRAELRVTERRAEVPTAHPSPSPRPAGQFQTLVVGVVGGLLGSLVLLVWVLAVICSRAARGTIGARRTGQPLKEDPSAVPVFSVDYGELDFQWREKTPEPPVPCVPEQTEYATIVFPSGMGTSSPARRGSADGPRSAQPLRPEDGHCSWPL

Row | Substance | expansion of HCV-specific T cells (frequency of CFSE low tetramer labeled CD8+ T cells after 6 days) (human PD-1 (human)) [fold] | expansion of HCV-specific T cells (frequency of CFSE low tetramer labeled CD8+ T cells after 6 days) (human PD-L1 (human)) [fold] | fold increase in tetramer+ cells (6-day CFSE proliferation of B*4201 TL9-specific CD8+ T cells) (human PD-L1 (human)) [fold] | fold increase in the frequency of EBV or CMV-specific CD8 T cells (6-day CFSE proliferation) (human PD-L1 (human)) [fold] | percentage of B*4201 TL9-specific CD8+ T cells after 6-day stimulation with peptide (human PD-L1 (human)) [%]
1 | Monoclonal antibody to human PD-1 (EH12, mouse IgG1) | 4 |  |  |  | 
2 | Monoclonal antibody to human PD-L1 (29E.2A3, mouse IgG2b) |  | 4 | 10.3 | < 3.5 | 12.4
